# Reference: US12545899B2, “Luciferase enzymes for use with thermostable luciferins in bioluminescent assays” (Promega Corporation, priority 2018, dated 2026)
# Residue numbers refer to the chain shown, from its start. In names and notes the source's numbering stands.
# B1: ATG-2890: SEQ ID NO: 13; I240L+H244W+Y254S+T344A+I396K (protein)
# chain: MADKNILYGPEPFYPLEDGTAGEQMFDALSRYAAIPGCIALTNAHTKENVLYEEFLKLSCRLAESFKKYGLKQNDTIAVCSENSLQFFLPVIASLYLGIIVAPVNDKYIERELIHSLGIVKPRIVFCSKNTFQKVLNVKSKLKSIETIIILDLNEDLGGYQCLNNFISQNSDSNLDVKKFKPYSFNRDDQVASIMFSSGTTGLPKGVMLTHKNIVARFSIAKDPTFGNAINPTSAILTVLPFHWGFGMMTTLGSFTCGFRVVLMHTFEEKLFLQSLQDYKVESTLLVPTLMAFLAKSALVEKYDLSHLKEIASGGAPLSKEIGEMVKKRFKLNFVRQGYGLTEATSAVLITPKGDAKPGSTGKIVPLHAVKVVDPTTGKILGPNEPGELYFKGPMKMKGYYNNEEATKAIIDNDGWLRSGDIAYYDNDGHFYIVDRLKSLIKYKGYQVAPAEIEGILLQHPYIVDAGVTGIPDEAAGELPAAGVVVQTGKYLNEQIVQDYVASQVSTAKWLRGGVKFLDEIPKGSTGKIDRKVLRQMLEKHTNGHHHHHHHH
# B2: ATG-3552: SEQ ID NO: 17; H244W+T344A+I396K+V300G+L305P+S306P (protein)
# chain: B1 chain with L240I, S254Y, V300G, L305F, S306P
# B3: ATG-2624: SEQ ID NO: 3; I240L+Y254S+T344A+I396K (protein)
# chain: B1 chain with W244H
# B4: ATG3707: SEQ ID NO: 2; H244W+T344A+I396K+S193A+N228D+L305F+S306P+I109V (protein)
# chain: B1 chain with I109V, S193A, N228D, L240I, S254Y, L305F, S306P
# B5: ATG-3553: SEQ ID NO: 18; H244W+T344A+I396K+L305P+S306P (protein)
# chain: B1 chain with L240I, S254Y, L305F, S306P
# B6: ATG-2625: SEQ ID NO: 4; N74N+H244R+V300G+I396K (protein)
# chain: B1 chain with L240I, W244R, S254Y, V300G, A344T
# B7: C7573H3: SEQ ID NO: 70; H244W+T344A+I396K+S193A+N228D+L305F+S306P+I109V+A316W (protein)
# chain: B1 chain with L240I, S254Y, L305F, A344T, K396I
# B8: ATG-3550: SEQ ID NO: 15; H244W+T344A+I396K+V300G+L305F (protein)
# chain: B1 chain with L240I, S254Y, V300G, L305F
# B9: ATG-3551: SEQ ID NO: 16; H244W+T344A+I396K+V300G+S306P (protein)
# chain: B1 chain with L240I, S254Y, V300G, S306P
# B10: ATG-3549: SEQ ID NO: 14; H244W+T344A+I396K+V300G (protein)
# chain: B1 chain with L240I, S254Y, V300G
# Legend:
# [1] = Purified enzyme activity of ATG-2890 with CS0280 (FIGS. 9C-9D); assay type: biochemical
# Procedure: (§1) FIG. 9A includes a representative graph assessing the activities of luciferase enzyme variants ATG-2877, ATG-2624, and ATG-2890 in the presence of 5,5-disubstituted luciferin analog substrate. Luciferin analog compounds were diluted from 50 mM to 20 mM in reaction buffer (either Bright-Glo™ or Detection Reagent buffer). […] Reagent compositions included 50 μl Reaction Buffer+ATP, which was combined with 50 μl diluted enzyme. Plates were incubated at room temp for 30 minutes to minimize background, and 5 μl of luciferin analog substrate was added to a final concentration of 1 mM. Plates were read before and after compound addition at 3 mins and 20 mins.
# [2] = Purified enzyme activity of ATG-2890 with CS0333 (FIGS. 9C-9D); assay type: biochemical
# Procedure: as §1
# [3] = Inhibition of luciferase enzyme variants by dehydro-F-luciferin; assay type: biochemical; details: for resistance to inhibition by dehydro F-luciferin: 1 μM F-luciferin, 1 mM ATP (FIG. 26); for inhibition by dehydro-F-luciferin relative to Ppe variant (SEQ ID NO: 1): Detection reagent buffer or Bright-Glo buffer (FIGS. 20, 21)
# Procedure: Reagent compositions include 0.022 μM-366.97 μM Dehydro F-luciferin titration, 1 mM ATP, 1 μM F-luciferin, and 0.005 mg/ml enzyme. […] Both amino acid substitutions L305F and S306P conferred improved resistance to the inhibitor individually and in combination.
# [4] = Effect of V300G, L305F, S306P on activity with CS0333 (FIG. 13); assay type: biochemical; details: 1 mM ATP; 100 nM to 1 mM substrate; Bright-Glo buffer
# Procedure: FIG. 13 includes a representative graph of the effects of amino acid substitutions V300G, L305F, and S306P on enzyme activity with the CS0333 analog. Reagent compositions included […]+1 mM ATP+100 nM to 1 mM substrate in Bright-Glo™ buffer.
# [5] = Activity and kinetics of ATG-3707 with CS0333 (FIGS. 19B-19D); assay type: biochemical
# Procedure: Reagent compositions included 0.005 mg/ml enzyme in 1×TBS+0.5% Prionex, 1 mM substrate in buffer, and 1 mM ATP.
# [6] = Kinetic analysis of ATG-3707, ATG-4117 with CS0280; assay type: biochemical
# Procedure: (§2) Kinetic tests of these luciferase enzyme variants were also conducted. […] Reagent compositions included 0.005 mg/ml luciferase enzyme variant+1 mM ATP, and 0.1 fM to 1 mM substrate in Bright-Glo™ (BG) or Detection Reagent (DR) buffers. The composition was incubated for 3 mins and read on GloMax® Multi+platform.
# (§3) Table 8 below includes representative results of kinetic analysis of the thermostable luciferase variants of Ppe (SEQ ID NO: 1), ATG-3707, and ATG-4117. The Ppe variant (SEQ ID NO: 1) was tested with D/L-luciferin, and ATG-3707, and ATG-4117 were tested with CS0280 and CS0333.
# [7] = Vmax and Km of ATG-3707 with CS0333; assay type: biochemical
# [8] = Kinetic analysis of ATG-3707, ATG-4117 with CS0333; assay type: biochemical
# Procedure: as §2, §3
# [9] = Kinetic analysis of ATG-3707 variants with CS0333; assay type: biochemical
# Procedure: Additionally, Table 5 (below) includes kinetic analysis of the ATG-3707 variants identified above. Reagent compositions included CS0333 serially diluted 10-fold from 1 mM to 10 fM in reaction buffer with 2 mM ATP. […] Reactions were incubated at 25° C. for 3 min, and luminescence was read and then normalized to ATG-3707 activity tested in parallel. […] Since C2157D2 was selected for improved brightness in CellTiterGlo® buffer over ATG-3707, it still had beneficial properties.
# [10] = Luminescence of ATG-3707 variants (second round epPCR) with CS0333; assay type: biochemical
# Procedure: Reagent compositions included CS0333 diluted from 20 mM to 2 mM in reaction buffer with 2 mM ATP. […] Reactions were incubated at 25° C. for 3 min, and luminescence was read and then normalized to ATG-3707 activity tested in parallel.
# [11] = Kinetic analysis of Ppe variant, ATG-3707, ATG-4117 with D/L-luciferin; assay type: biochemical
# Procedure: as §2, §3
# [12] = Vmax and Km of Ppe variant and ATG-3707 with D/L-luciferin; assay type: biochemical
# [13] = Brightness of additional luciferase enzyme variants with CS0333; assay type: biochemical; details: Table 7A, 1 mM CS0333
# Summary of the method: (§4)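 Each variant at 0.005 mg/ml combined with 1 mM ATP plus 1 mM substrate in Bright-Glo or Detection Reagent buffer; luminescence recorded as relative brightness.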
# [14] = Brightness of additional luciferase enzyme variants with CS0280; assay type: biochemical; details: Table 7A, 1 mM CS0280
# Summary of the method: as §4
# [15] = Differential scanning fluorimetry (DSF) analysis; assay type: physicochemical; set-up: key to DSF Tm: melting temperature in °C (heated 30-95 °C at 1 °C/min); details: Table 7A
# Summary of the method: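 Thermal melt with 5× final Sypro Orange: ramp 1° C/min from 30 to 95° C, reading each 60 s, derivative of fluorescence plotted by temperature. Luciferase variants were in 20 mM HEPES pH 7.5, 200 mM NaCl, 1 mM EDTA; other enzymes in 50 mM HEPES pH 7.5, 100 mM NaCl, 2 mM EDTA.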
molecule,measurement,setting,value
B1,increase in activity with CS0280 compared to Ppe variant (SEQ ID NO: 1),[1]; Bright-Glo Buffer,120 fold
same,increase in activity with CS0280 compared to Ppe variant (SEQ ID NO: 1),[1]; Detection Buffer,6 fold
same,increase in activity with CS0333 compared to Ppe variant (SEQ ID NO: 1),[2]; Bright-Glo Buffer,"1,470 fold"
same,increase in activity with CS0333 compared to Ppe variant (SEQ ID NO: 1),[2]; Detection Buffer,"3,050 fold"
B2,resistance to inhibition by dehydro F-luciferin,[3],conferred resistance to inhibition by dehydro F-luciferin
same,activity with CS0333 relative to Ppe variant (SEQ ID NO: 1),[4],improved activity
B3,inhibition by dehydro-F-luciferin relative to Ppe variant (SEQ ID NO: 1),[3],"inhibited by dehydro-F-luciferin, but less so"
B4,activity with CS0333 comparable to that of Ppe variant with luciferin,[5]; Bright-Glo and Detection Reagent buffers,≤ 10 ×
same,loss of performance with D/L-luciferin as compared to CS0333,[5]; dimmer,about 1 log
same,Km,[6]; BrightGlo,4.53 µM
same,Vmax (RLU),[6]; BrightGlo,"5,791,823 RLU"
same,Km,[6]; Detection Reagent,93.5 µM
same,Vmax (RLU),[6]; Detection Reagent,"4,706,312 RLU"
same,Km,[7]; BrightGlo Buffer,0.539 µM
same,Vmax (RLU),[7]; BrightGlo Buffer,"3,724,104 RLU"
same,Km,[7]; Detection Reagent Buffer,4.82 µM
same,Vmax (RLU),[7]; Detection Reagent Buffer,"5,458,906 RLU"
same,Km,[8]; BrightGlo,3.61 µM
same,Vmax (RLU),[8]; BrightGlo,"828,567 RLU"
same,Km,[8]; Detection Reagent,148 µM
same,Vmax (RLU),[8]; Detection Reagent,"42,242 RLU"
same,Km,[9]; BrightGlo,6.25 µM
same,Vmax (RLU),[9]; BrightGlo,"4,240,329 RLU"
same,Km,[9]; Detection Reagent,113 µM
same,Vmax (RLU),[9]; Detection Reagent,"3,695,670 RLU"
same,Luminescence (RLU) BrightGlo,"[10]; BrightGlo buffer, 25° C., 3 min",3887670 RLU
same,Normalized Luminescence BrightGlo,"[10]; BrightGlo buffer, normalized to ATG-3707",1.00
same,Luminescence (RLU) CellTiterGlo,"[10]; CellTiterGlo buffer, 25° C., 3 min",644571 RLU
same,Normalized Luminescence CellTiterGlo,"[10]; CellTiterGlo buffer, normalized to ATG-3707",1.00
same,Luminescence (RLU) Detection Reagent,"[10]; Detection Reagent buffer, 25° C., 3 min",5157310 RLU
same,Normalized Luminescence Detection Reagent,"[10]; Detection Reagent buffer, normalized to ATG-3707",1.00
same,Km,[11]; BrightGlo,0.0272 µM
same,Vmax (RLU),[11]; BrightGlo,"2,596,835 RLU"
same,Km,[11]; Detection Reagent,1.18 µM
same,Vmax (RLU),[11]; Detection Reagent,"6,820,106 RLU"
same,Km,[12]; BrightGlo Buffer,0.03 µM
same,Vmax (RLU),[12]; BrightGlo Buffer,"2,033,235 RLU"
same,Km,[12]; CellTiterGlo buffer,91.7 µM
same,Vmax (RLU),[12]; CellTiterGlo buffer,"4,840,502 RLU"
same,Km,[12]; Detection Reagent Buffer,19.4 µM
same,Vmax (RLU),[12]; Detection Reagent Buffer,"4,499,483 RLU"
B5,resistance to inhibition by dehydro F-luciferin,[3],conferred resistance to inhibition by dehydro F-luciferin
same,activity with CS0333 relative to Ppe variant (SEQ ID NO: 1),[4],improved activity
B6,inhibition by dehydro-F-luciferin relative to Ppe variant (SEQ ID NO: 1),[3],"inhibited by dehydro-F-luciferin, but less so"
B7,"Fold-improvement over ATG3707, CS0333 BG",[13]; Bright-Glo buffer,4.35
same,"Fold-improvement over ATG3707, CS0333 DR",[13]; Detection Reagent buffer,3.36
same,Km,[6]; BrightGlo,13 µM
same,Vmax (RLU),[6]; BrightGlo,"7,188,109 RLU"
same,Km,[6]; Detection Reagent,419 µM
same,Vmax (RLU),[6]; Detection Reagent,"7,879,793 RLU"
same,Km,[8]; BrightGlo,12.4 µM
same,Vmax (RLU),[8]; BrightGlo,"1,601,921 RLU"
same,Km,[8]; Detection Reagent,758 µM
same,Vmax (RLU),[8]; Detection Reagent,"124,964 RLU"
same,Km,[11]; BrightGlo,0.0702 µM
same,Vmax (RLU),[11]; BrightGlo,"719,605 RLU"
same,Km,[11]; Detection Reagent,2.65 µM
same,Vmax (RLU),[11]; Detection Reagent,"817,287 RLU"
same,"Fold-improvement over ATG3707, CS0280 BG",[14]; Bright-Glo buffer,6.04
same,"Fold-improvement over ATG3707, CS0280 DR",[14]; Detection Reagent buffer,7.48
same,DSF Tm,[15],61
B8,resistance to inhibition by dehydro F-luciferin,[3],conferred resistance to inhibition by dehydro F-luciferin
same,activity with CS0333 relative to Ppe variant (SEQ ID NO: 1),[4],highest activity
B9,resistance to inhibition by dehydro F-luciferin,[3],conferred resistance to inhibition by dehydro F-luciferin
same,activity with CS0333 relative to Ppe variant (SEQ ID NO: 1),[4],improved activity
B10,activity with CS0333 relative to Ppe variant (SEQ ID NO: 1),[4],improved activity
